These results are taken from publication PMC3983218.

This series deals with T1, MtuSSB (Mycobacterium tuberculosis, UniProt P9WGD5).
T1 sequence: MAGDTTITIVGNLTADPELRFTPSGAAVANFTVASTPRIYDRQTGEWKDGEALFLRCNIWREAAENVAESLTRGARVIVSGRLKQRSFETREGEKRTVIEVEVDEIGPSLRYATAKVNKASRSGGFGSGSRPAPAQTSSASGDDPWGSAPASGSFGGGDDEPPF
The experiment in a line: EMSA; 20 mM Tris-HCl pH 8.0, 50 mM NaCl, 5% glycerol, 50 μg/ml BSA, 15 μl, 30 min at 4°C; […]. The settings on record: protein: recombinant; chain copies: 4; label: 5' 32P; single strand. On the technique in general: In EMSA bound probe runs differently from free probe, usually more slowly.

B1: 79 mer ssDNA (ssDNA)
DNA: GCACTAGTGCGGATAGCCCCGTGTTGTTGTCTGACCCCCGACCCCGACGGCAATGCGGGGCAATCCCCTGGAGGCCTGC
For B1, the binding result is on record as “binds”.
